Laboratory results as given in the supplement of paper PMC10567573.

B1: C10orf62 (parent)
chain: GHSHHSHHGHPSHQSHSLPNRRH
B2: FBXO3 (parent)
chain: AGGFQQRQGLKYCLPLTFCIHTGL

Variants of: B1
Test: protein stability index of a GFP-peptide fusion (GPS, HEK-293T) (PSI 1-6); higher = more stable
Conditions: c terminus: native
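Note: lentivirally expressed fusions sorted by FACS into six bins by GFP to DsRed ratio, PSI derived from sequencing read proportions per bin multiplied by bin number.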

Row | Variant | protein stability index
1 | GHSHHSHHGHPSHQSHSLGNRRH | 2.35
2 | GHSHHSHHGHPSHQSHSLTNRRH | 4.47
3 | GHSHHSHHGHPSHQSHSLENRRH | 2
4 | GHSHHSHHGHPSHQSHSLLNRRH | 2.28
5 | GHSHHSHHGHPSHQSHSLHNRRH | 2.4
6 | GHSHHSHHGHPSHQSHSLQNRRH | 2.38
7 | GHSHHSHHGHPSHQSHSLYNRRH | 3.05

Variants of: B2
Test: as above
Conditions: c terminus: a fixed tail appended

Row | Variant | protein stability index
8 | AGGFQQPQGLKYCLPLTFCIHTGL | 3.24
9 | AGGFQQRQNLKYCLPLTFCIHTGL | 2.28
10 | AGGFQQRQCLKYCLPLTFCIHTGL | 2.68
11 | AGGFQQRQVLKYCLPLTFCIHTGL | 2.39
12 | AGQFQQRQGLKYCLPLTFCIHTGL | 4.36
13 | AGLFQQRQGLKYCLPLTFCIHTGL | 3.11
14 | AGGFQQRQGLKYCLPLTHCIHTGL | 1.77
15 | AGGFQQRQGLKYCLPLTYCIHTGL | 2.71
16 | AGGFQQRQGLKYCLPLTDCIHTGL | 1.67
17 | AGGFQQRQGLKYCLPLTKCIHTGL | 1.89
18 | AGGFQQRQGLKYCLPLYFCIHTGL | 2.69
19 | AGGFQQRQGLKYCLPLPFCIHTGL | 2.59
20 | AGGFQQRQGLKYCLPLHFCIHTGL | 3.39
21 | AGGFQQRQGLKYCLPLNFCIHTGL | 1.66
22 | AGGFQQRQGLKYCLPLQFCIHTGL | 2.4
23 | AGGFQQRQGLKYCLPLDFCIHTGL | 1.55
24 | AGGFQQRQGLKYCLPLEFCIHTGL | 4.01
25 | AGGFQQRQGLKYCLPLVFCIHTGL | 3.17
26 | AGGFQQRQGLKYCLPLFFCIHTGL | 1.67
27 | AGGFQQRQGMKYCLPLTFCIHTGL | 2.56
28 | AGGFQQRQGAKYCLPLTFCIHTGL | 2.95
29 | AHGFQQRQGLKYCLPLTFCIHTGL | 4.03
30 | AKGFQQRQGLKYCLPLTFCIHTGL | 3.68

Row | Variant | protein stability index
31 | AIGFQQRQGLKYCLPLTFCIHTGL | 4.2
32 | ASGFQQRQGLKYCLPLTFCIHTGL | 3.13
33 | AGGFQQRQGLKYCLPLTFCIHLGL | 2.59
34 | AGGFQQRQGLKYCLPLTFCIHHGL | 2.17
35 | AGGFQQRQGLKYCLPLTFCIHRGL | 2.2
36 | AGGFQQRQGLKYCLPLTFCIHDGL | 1.27
37 | AGGRQQRQGLKYCLPLTFCIHTGL | 2.36
38 | AGGCQQRQGLKYCLPLTFCIHTGL | 2.66
39 | AGGDQQRQGLKYCLPLTFCIHTGL | 1.87
40 | AGGFQQRQGLKYCLPLTFDIHTGL | 1.46
41 | AGGFQQRQGLKYCLPLTFEIHTGL | 3.11
42 | AGGFQQRQGLKYCLPLTFKIHTGL | 2.21
43 | AGGFQQRQGLKYCLPLTFLIHTGL | 2.86
44 | AGGFQQRQGLWYCLPLTFCIHTGL | 4.04
45 | AGGFQQRQGLRYCLPLTFCIHTGL | 2.03
46 | AGGFQQRQGLAYCLPLTFCIHTGL | 2.43
47 | AGGFQQRQGLKYCLPLTFCIHTKL | 2.81
48 | AGGFQQRQGLKYCLPLTFCIHTRL | 3.05
49 | AGGFQQRQGLKYCLPLTFCIHTML | 2.31
50 | AGGFQQRQGLKYCLPLTFCIHTFL | 3.1
51 | AGGFQQRQGLKYGLPLTFCIHTGL | 2.48
52 | AGGFQQRQGLKYPLPLTFCIHTGL | 3.01
53 | AGGFQQRQGLKYNLPLTFCIHTGL | 2.93

Row | Variant | protein stability index
54 | AGGFWQRQGLKYCLPLTFCIHTGL | 3.08
55 | AGGFRQRQGLKYCLPLTFCIHTGL | 2.27
56 | AGGFLQRQGLKYCLPLTFCIHTGL | 2.32
57 | AGGFKQRQGLKYCLPLTFCIHTGL | 2.88
58 | AGGFQQRQGLKYCLPLTFCIQTGL | 2.73
59 | AGGFQQRQGLKYCLPLTFCIFTGL | 3.32
60 | AGGFQQRQGLKYCLPLTFCILTGL | 2.46
61 | AGGFQQRQGLKYCLPLTFCICTGL | 3.66
62 | AGGFQQRQGLKYCLPLTFCIPTGL | 2.76
63 | AGGFQQRQGLKSCLPLTFCIHTGL | 3.56
64 | AGGFQQRQGLKMCLPLTFCIHTGL | 2.59
65 | AGGFQQRQGLKICLPLTFCIHTGL | 2.84
66 | AGGFQQRQGLKWCLPLTFCIHTGL | 2.43
67 | AGGFQQRQGLKYCLWLTFCIHTGL | 1.61
68 | AGGFQQRQGLKYCLCLTFCIHTGL | 2.57
69 | AGGFQQRQGLKYCLLLTFCIHTGL | 2.01
70 | HGGFQQRQGLKYCLPLTFCIHTGL | 3.55
71 | NGGFQQRQGLKYCLPLTFCIHTGL | 2.47
72 | AGGFQQRMGLKYCLPLTFCIHTGL | 2.24
73 | AGGFQQRRGLKYCLPLTFCIHTGL | 2.99
74 | AGGFQQRGGLKYCLPLTFCIHTGL | 3.4
75 | AGGFQQRQGLKYCMPLTFCIHTGL | 2.42
76 | AGGFQQRQGLKYCRPLTFCIHTGL | 2.88

Row | Variant | protein stability index
77 | AGGFQQRQGLKYCQPLTFCIHTGL | 2.57
78 | AGGFQQRQGLKYCTPLTFCIHTGL | 1.84
79 | AGGFQQRQGLKYCLPLTFCLHTGL | 3.23
80 | AGGFQQRQGLKYCLPLTFCGHTGL | 2.69
81 | AGGFQQRQGLKYCLPLTFCQHTGL | 2.62
82 | AGGFQQRQGLKYCLPLTFCTHTGL | 2.56
83 | AGGFQQRQGLKYCLPLTFCVHTGL | 2.78
84 | AGGFQQRQGLKYCLPATFCIHTGL | 2.44
85 | AGGFQQRQGLKYCLPTTFCIHTGL | 2.53
86 | AGGFQQRQGLKYCLPCTFCIHTGL | 1.66
87 | AGGFQQRQGLKYCLPLTFCIHTGI | 2.69
88 | AGGFQQRQGLKYCLPLTFCIHTGR | 2.73
89 | AGGFQQRQGLKYCLPLTFCIHTGP | 1.88
90 | AGGFQQRQGLKYCLPLTFCIHTGH | 2.7
91 | AGGFQQRQGLKYCLPLTFCIHTGY | 2.45
92 | AGGFQQRQGLKYCLPLTFCIHTGV | 3.48
93 | AGGFQQRQGLKYCLPLTFCIHTGQ | 1.96
94 | AGGFQPRQGLKYCLPLTFCIHTGL | 3.26
95 | AGGFQDRQGLKYCLPLTFCIHTGL | 1.89
96 | AGGFQERQGLKYCLPLTFCIHTGL | 3.6
